B1: Serine/threonine-protein kinase SIK3 (Homo sapiens), Q9Y2K2 (parent)
chain: MAAAAASGAGGAAGAGTGGAGPAGRLLPPPAPGSPAAPAAVSPAAGQPRPPAPASRGPMPARIGYYEIDRTIGKGNFAVVKRATHLVTKAKVAIKIIDKTQLDEENLKKIFREVQIMKMLCHPHIIRLYQVMETERMIYLVTEYASGGEIFDHLVAHGRMAEKEARRKFKQIVTAVYFCHCRNIVHRDLKAENLLLDANLNIKIADFGFSNLFTPGQLLKTWCGSPPYAAPELFEGKEYDGPKVDIWSLGVVLYVLVCGALPFDGSTLQNLRARVLSGKFRIPFFMSTECEHLIRHMLVLDPNKRLSMEQICKHKWMKLGDADPNFDRLIAECQQLKEERQVDPLNEDVLLAMEDMGLDKEQTLQSLRSDAYDHYSAIYSLLCDRHKRHKTLRLGALPSMPRALAFQAPVNIQAEQAGTAMNISVPQVQLINPENQIVEPDGTLNLDSDEGEEPSPEALVRYLSMRRHTVGVADPRTEVMEDLQKLLPGFPGVNPQAPFLQVAPNVNFMHNLLPMQNLQPTGQLEYKEQSLLQPPTLQLLNGMGPLGRRASDGGANIQLHAQQLLKRPRGPSPLVTMTPAVPAVTPVDEESSDGEPDQEAVQSSTYKDSNTLHLPTERFSPVRRFSDGAASIQAFKAHLEKMGNNSSIKQLQQECEQLQKMYGGQIDERTLEKTQQQHMLYQQEQHHQILQQQIQDSICPPQPSPPLQAACENQPALLTHQLQRLRIQPSSPPPNHPNNHLFRQPSNSPPPMSSAMIQPHGAASSSQFQGLPSRSAIFQQQPENCSSPPNVALTCLGMQQPAQSQQVTIQVQEPVDMLSNMPGTAAGSSGRGISISPSAGQMQMQHRTNLMATLSYGHRPLSKQLSADSAEAHSLNVNRFSPANYDQAHLHPHLFSDQSRGSPSSYSPSTGVGFSPTQALKVPPLDQFPTFPPSAHQQPPHYTTSALQQALLSPTPPDYTRHQQVPHILQGLLSPRHSLTGHSDIRLPPTEFAQLIKRQQQQRQQQQQQQQQQEYQELFRHMNQGDAGSLAPSLGGQSMTERQALSYQNADSYHHHTSPQHLLQIRAQECVSQASSPTPPHGYAHQPALMHSESMEEDCSCEGAKDGFQDSKSSSTLTKGCHDSPLLLSTGGPGDPESLLGTVSHAQELGIHPYGHQPTAAFSKNKVPSREPVIGNCMDRSSPGQAVELPDHNGLGYPARPSVHEHHRPRALQRHHTIQNSDDAYVQLDNLPGMSLVAGKALSSARMSDAVLSQSSLMGSQQFQDGENEECGASLGGHEHPDLSDGSQHLNSSCYPSTCITDILLSYKHPEVSFSMEQAGV
B2: Serine/threonine-protein kinase SIK1 (Homo sapiens), P57059 (parent)
chain: MVIMSEFSADPAGQGQGQQKPLRVGFYDIERTLGKGNFAVVKLARHRVTKTQVAIKIIDKTRLDSSNLEKIYREVQLMKLLNHPHIIKLYQVMETKDMLYIVTEFAKNGEMFDYLTSNGHLSENEARKKFWQILSAVEYCHDHHIVHRDLKTENLLLDGNMDIKLADFGFGNFYKSGEPLSTWCGSPPYAAPEVFEGKEYEGPQLDIWSLGVVLYVLVCGSLPFDGPNLPTLRQRVLEGRFRIPFFMSQDCESLIRRMLVVDPARRITIAQIRQHRWMRAEPCLPGPACPAFSAHSYTSNLGDYDEQALGIMQTLGVDRQRTVESLQNSSYNHFAAIYYLLLERLKEYRNAQCARPGPARQPRPRSSDLSGLEVPQEGLSTDPFRPALLCPQPQTLVQSVLQAEMDCELQSSLQWPLFFPVDASCSGVFRPRPVSPSSLLDTAISEEARQGPGLEEEQDTQESLPSSTGRRHTLAEVSTRLSPLTAPCIVVSPSTTASPAEGTSSDSCLTFSASKSPAGLSGTPATQGLLGACSPVRLASPFLGSQSATPVLQAQGGLGGAVLLPVSFQEGRRASDTSLTQGLKAFRQQLRKTTRTKGFLGLNKIKGLARQVCQAPASRASRGGLSPFHAPAQSPGLHGGAAGSREGWSLLEEVLEQQRLLQLQHHPAAAPGCSQAPQPAPAPFVIAPCDGPGAAPLPSTLLTSGLPLLPPPLLQTGASPVASAAQLLDTHLHIGTGPTALPAVPPPRLARLAPGCEPLGLLQGDCEMEDLMPCSLGTFVLVQ

Variants of: B1
Details: with 1433z_human YWHAZ

Row | effect of a mutation on the interaction | Variant
1 | decreasing interaction | T221A

Variants of: B2
Details: with 1433z_human YWHAZ

Row | effect of a mutation on the interaction | Variant
2 | decreasing interaction | T182A
